Measured values reported in patent US20240270846A1 (published 2024).

Molecular target: T1, biotin-labeled cynomolgus monkey CD137 fused to human IgG1 Fc fragment (cynomolgus monkey, UniProt Q07011 24-186 (human entry), limits assumed, biotin-labeled)
T1 construct: the assay used the fusion to human IgG1 Fc; also called cyno CD137-Fc
T1 chain: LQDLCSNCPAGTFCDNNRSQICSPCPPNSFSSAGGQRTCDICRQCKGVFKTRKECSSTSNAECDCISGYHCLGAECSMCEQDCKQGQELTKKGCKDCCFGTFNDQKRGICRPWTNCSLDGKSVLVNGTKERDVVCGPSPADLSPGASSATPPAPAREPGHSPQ
Test: beads ELISA, biotin labeled cyno CD137-Fc
Description: First, 20 micro g of Streptavidin-coated magnetic beads MyOne-T1 beads was washed three-times with blocking buffer including 0.5× block Ace, 0.02% Tween and 0.05% ProClin 300 and then blocked with this blocking buffer at room temperature for 60 minutes or more. […] After that each well was washed with TBST. […] The plate was incubated for one hour. […] 2 minutes later the fluorescence of each well was detected.

B1: DADU01_3 #001 (antibody, human IgG1, V domains shown)
VH: QVQLVESGGGLVQPGRSLRLSCAASGFTFSIAWMHWVRQAPGKGLEWVAQIKDRVNAYEAYYAPSVKGRFTISRDDSKNSIYLQMNSLKTEDTAVYYCRYVHYASYYDLLGYGGVDAWGQGTTVTVSS
VL: DIVMTQSPLSLPVTPGEPASISCRSSQSLVHSNRNTYLHWYQQKPGQAPRLLIYKVSNRFSGVPDRFSGSGSGTDFTLKISRVEAEDVGVYYCGQGTQVPYTFGQGTKLEIK
notes: VH in human IgG1 CH1-Fc plasmid; GLS3000 light chain; also called dBBDu_126; dBBDu126
**Q.** Does B1 bind?
**A.** Result: no binding (tested: 25 micro L of 50 ng/micro L purified IgG)
